Reference: patent US20230346885A1 (published 2023)

T1: ACTL8 peptide on HLA (human)
T1 peptide: SLYASGLLTGV

T2: ACTL8 peptide on HLA (human)
T2 peptide: RCLFQLETV

T3: ACTL8 peptide on HLA (human)
T3 peptide: ALDESNTYQL

T4: ASCL2 peptide on HLA (human)
T4 peptide: LLAEHDAVRNA

T5: ASCL2 peptide on HLA (human)
T5 peptide: LLAEHDAVRNAL

B1: TCR of SEQ ID NOs 281 and 282 (TCR, V domains shown)
Valpha: KQEVTQIPAALSVPEGENLVLNCSFTDSAIYNLQWFRQDPGKGLTSLLLIQSSQREQTSGRLNASLDKSSGRSTLYIAASQPGDSATYLCAVRGYNKLIFGAGTRLAVHP
Vbeta: NAGVTQTPKFRVLKTGQSMTLLCAQDMNHEYMYWYRQDPGMGLRLIHYSVGEGTTAKGEVPDGYNVSRLKKQNFLLGLESAAPSQTSVYFCASSFDVTEAFFGQGTRLTVV
B2: TCR of SEQ ID NOs 283 and 284 (TCR, V domains shown)
Valpha: KQEVTQIPAALSVPEGENLVLNCSFTDSAIYNLQWFRQDPGKGLTSLLLIQSSQREQTSGRLNASLDKSSGRSTLYIAASQPGDSATYLCAVKKDAGNKLTFGGGTRVLVKP
Vbeta: NAGVTQTPKFRVLKTGQSMTLLCAQDMNHEYMYWYRQDPGMGLRLIYYSASEGTTDKGEVPNGYNVSRLNKREFSLRLESAAPSQTSVYFCASSDSRRGGLLLYNSPLHFGNGTRLTVT
B3: TCR of SEQ ID NOs 285 and 286 (TCR, V domains shown)
Valpha: KQEVTQIPAALSVPEGENLVLNCSFTDSAIYNLQWFRQDPGKGLTSLLLIQSSQREQTSGRLNASLDKSSGRSTLYIAASQPGDSATYLCAVRAAGNKLTFGGGTRVLVKP
Vbeta: NAGVTQTPKFRVLKTGQSMTLLCAQDMNHEYMYWYRQDPGMGLRLIYYSASEGTTDKGEVPNGYNVSRLNKREFSLRLESAAPSQTSVYFCASSDSRRGGLLLYNSPLHFGNGTRLTVT
B4: TCR of SEQ ID NOs 287 and 288 (TCR, V domains shown)
Valpha: KQEVTQIPAALSVPEGENLVLNCSFTDSAIYNLQWFRQDPGKGLTSLLLIQSSQREQTSGRLNASLDKSSGRSTLYIAASQPGDSATYLCAVNYYNQGGKLIFGQGTELSVKP
Vbeta: NAGVTQTPKFQVLKTGQSMTLQCAQDMNHNSMYWYRQDPGMGLRLIYYSASEGTTDKGEVPNGYNVSRLNKREFSLRLESAAPSQTSVYFCASTPTYWDSYEQYFGPGTRLTVT
B5: TCR of SEQ ID NOs 291 and 292 (TCR, V domains shown)
Valpha: KQEVTQIPAALSVPEGENLVLNCSFTDSAIYNLQWFRQDPGKGLTSLLLIQSSQREQTSGRLNASLDKSSGRSTLYIAASQPGDSATYLCAVDADKLIFGTGTRLQVFP
Vbeta: NAGVTQTPKFRILKIGQSMTLQCTQDMNHEYMYWYRQDPGMGLRLIHYSVGEGTTAKGEVPDGYNVSRLKKQNFLLGLESAAPSQTSVYFCASREVGRDEHFFGPGTRLTVL
B6: TCR of SEQ ID NOs 289 and 290 (TCR, V domains shown)
Valpha: KQEVTQIPAALSVPEGENLVLNCSFTDSAIYNLQWFRQDPGKGLTSLLLIQSSQREQTSGRLNASLDKSSGRSTLYIAASQPGDSATYLCAVDSSGSRLTFGEGTQLTVNP
Vbeta: NAGVTQTPKFQVLKTGQSMTLQCAQDMNHEYMYWYRQDPGMGLRLIHYSVGAGITDQGEVPNGYNVSRSTTEDFPLRLLSAAPSQTSVYFCASRLLGGSGYTFGSGTRLTVV
B7: TCR of SEQ ID NOs 279 and 280 (TCR, V domains shown)
Valpha: KQEVTQIPAALSVPEGENLVLNCSFTDSAIYNLQWFRQDPGKGLTSLLLIQSSQREQTSGRLNASLDKSSGRSTLYIAASQPGDSATYLCATGFQKLVFGTGTRLLVSP
Vbeta: NAGVTQTPKFQVLKTGQSMTLQCAQDMNHNSMYWYRQDPGMGLRLIYYSASEGTTDKGEVPNGYNVSRLNKREFSLRLESAAPSQTSVYFCASTLGRLLTEAFFGQGTRLTVV
B8: TCR of SEQ ID NOs 275 and 276 (TCR, V domains shown)
Valpha: KQEVTQIPAALSVPEGENLVLNCSFTDSAIYNLQWFRQDPGKGLTSLLLIQSSQREQTSGRLNASLDKSSGRSTLYIAASQPGDSATYLCAVRGYNKLIFGAGTRLAVHP
Vbeta: NAGVTQTPKFRILKIGQSMTLQCTQDMNHNYMYWYRQDPGMGLKLIYYSVGAGITDKGEVPNGYNVSRSTTEDFPLRLLSAAPSQTSVYFCASSYSPIVGAFFGQGTRLTVV
B9: TCR of SEQ ID NOs 277 and 278 (TCR, V domains shown)
Valpha: KQEVTQIPAALSVPEGENLVLNCSFTDSAIYNLQWFRQDPGKGLTSLLLIQSSQREQTSGRLNASLDKSSGRSTLYIAASQPGDSATYLCAVRGYNKLIFGAGTRLAVHP
Vbeta: NAGVTQTPKFRILKIGQSMTLQCAQDMNHNYMYWYRQDPGMGLKLIYYSVGAGITDKGEVPNGYNVSRSTTEDFPLRLELAAPSQTSVYFCASTRDTYYGYTFGSGTRLTVV
B10: TCR of SEQ ID NOs 307 and 308 (TCR, V domains shown)
Valpha: KQEVTQIPAALSVPEGENLVLNCSFTDSAIYNLQWFRQDPGKGLTSLLLIQSSQREQTSGRLNASLDKSSGRSTLYIAASQPGDSATYLCAVTDSWGKLQFGAGTQVVVTP
Vbeta: NAGVTQTPKFQVLKTGQSMTLQCAQDMNHNSMYWYRQDPGMGLRLIYYSVGAGITDQGEVPNGYNVSRSTTEDFPLRLLSAAPSQTSVYFCASSRGPINYGYTFGSGTRLTVV
B11: TCR of SEQ ID NOs 309 and 310 (TCR, V domains shown)
Valpha: KQEVTQIPAALSVPEGENLVLNCSFTDSAIYNLQWFRQDPGKGLTSLLLIQSSQREQTSGRLNASLDKSSGRSTLYIAASQPGDSATYLCAVRPAGQNFVFGPGTRLSVLP
Vbeta: NAGVTQTPKFQVLKTGQSMTLQCAQDMNHNSMYWYRQDPGMGLRLIYYSASEGTTDKGEVPNGYNVSRLNKREFSLRLESAAPSQTSVYFCASSEALWGGNTEAFFGQGTRLPVV
B12: TCR of SEQ ID NOs 305 and 306 (TCR, V domains shown)
Valpha: KQEVTQIPAALSVPEGENLVLNCSFTDSAIYNLQWFRQDPGKGLTSLLLIQSSQREQTSGRLNASLDKSSGRSTLYIAASQPGDSATYLCAVRSSTDSWGKFQFGAGTQVVVTP
Vbeta: NAGVTQTPKFQVLKTGQSMTLQCAQDMNHEYMSWYRQDPGMGLRLIHYSVGAGITDQGEVPNGYNVSRSTTEDFPLRLLSAAPSQTSVYFCASSYSAGLTGELFFGEGSRLTVL
B13: TCR of SEQ ID NOs 297 and 298 (TCR, V domains shown)
Valpha: KQEVTQIPAALSVPEGENLVLNCSFTDSAIYNLQWFRQDPGKGLTSLLLIQSSQREQTSGRLNASLDKSSGRSTLYIAASQPGDSATYLCAVLTNDYKLSFGAGTTVTVRA
Vbeta: NAGVTQTPKFRVLKTGQSMTLLCAQDMNHEYMYWYRQDPGMGLRLIHYSVGEGTTAKGEVPDGYNVSRLKKQNFLLGLESAAPSQTSVYFCASSYSGFDSPLHFGNGTRLTVT
B14: TCR of SEQ ID NOs 293 and 294 (TCR, V domains shown)
Valpha: KQEVTQIPAALSVPEGENLVLNCSFTDSAIYNLQWFRQDPGKGLTSLLLIQSSQREQTSGRLNASLDKSSGRSTLYIAASQPGDSATYLCAVRQHTGRRALTFGSGTRLQVQP
Vbeta: NAGVTQTPKFRILKIGQSMTLQCTQDMNHNYMYWYRQDPGMGLKLIYYSVGAGITDKGEVPNGYNVSRSTTEDFPLRLELAAPSQTSVYFCASSYSPENTEAFFGQGTRLTVV
B15: TCR of SEQ ID NOs 295 and 296 (TCR, V domains shown)
Valpha: KQEVTQIPAALSVPEGENLVLNCSFTDSAIYNLQWFRQDPGKGLTSLLLIQSSQREQTSGRLNASLDKSSGRSTLYIAASQPGDSATYLCAVRQHTGRRALTFGSGTRLQVQP
Vbeta: NAGVTQTPKFRILKIGQSMTLQCTQDMNHNYMYWYRQDPGMGLRLIHYSVGAGITDQGEVPNGYNVSRSTTEDFPLRLLSAAPSQTSVYFCASSYSPEADIQYFGAGTRLSVL

Molecular target: T1, ACTL8 peptide on HLA
Test: binding, other

Binding result, recognises:
B1
B2
B3

Molecular target: T2, ACTL8 peptide on HLA
Test: binding, other

Binding result, recognises:
B4
B5
B6

Molecular target: T3, ACTL8 peptide on HLA
Test: binding, other

Binding result, recognises:
B7
B8
B9

Molecular target: T4, ASCL2 peptide on HLA
Test: binding, other

Binding result, recognises:
B10
B11
B12

Molecular target: T5, ASCL2 peptide on HLA
Test: binding, other

Binding result, recognises:
B13
B14
B15
